For 3 molecules, Kd results are on record in PMC5452035, “Structural insight into recognition of phosphorylated threonine‐4 of RNA polymerase II C‐terminal domain by Rtt103p” (EMBO Reports, 2017).

Holding throughout (assay): fluorescence polarisation; fluorescence anisotropy; Rtt103p CID titrated into 10 nM N-terminally FAM-labelled CTD peptide; 10°C; 35 mM KH2PO4, 100 mM KCl, pH 6.8; 1:1 model with non-specific binding (DynaFit)
Settings in all cases: both partners purified

For test [1], the target named is T1, Rtt103p CID Arg108Asn mutant (yeast, UniProt Q05543 3-131, Arg108Asn).
T1 sequence (looked up): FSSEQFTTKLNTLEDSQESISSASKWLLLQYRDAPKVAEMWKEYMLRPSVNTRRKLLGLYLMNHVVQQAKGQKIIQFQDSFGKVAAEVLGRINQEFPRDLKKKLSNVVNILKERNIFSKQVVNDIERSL

Test [2] deals with T2, Rtt103p CID Arg116Glu mutant (yeast, UniProt Q05543 3-131, Arg116Glu).
T2 sequence (looked up): T1 sequence (looked up) with N106R, R114E

The target in test [3] is T3, Rtt103p CID Lys72Glu mutant (yeast, UniProt Q05543 3-131, Lys72Glu).
T3 sequence (looked up): T1 sequence (looked up) with K70E, N106R

Test [4] addresses T4, Rtt103p CTD-interacting domain (CID) (3-131-6xHIS) (yeast, UniProt Q05543 3-131).
T4 construct: Used unlabelled for fluorescence anisotropy and the 13C-HSQC titration, 15N-labelled for the TROSY titration and 15N,13C-labelled for the structure; also called Rtt103p CID; Rtt103 CID
T4 sequence (looked up): T1 sequence (looked up) with N106R

Residue numbers refer to the chain shown, from its start. Non-standard residues stand in square brackets, D forms with d. No end group written: not given here. pT = C[C@@H](OP(=O)(O)O)[C@H](N)C(=O)O; pS = N[C@@H](COP(=O)(O)O)C(=O)O; FAM = 5,6-carboxyfluorescein

B1: FAM-PSY(pS)PTSPSYSPTSPS (peptide)
peptide: {FAM}-PSY[pS]PTSPSYSPTSPS
notes: consensus heptad repeats (Tyr1-Ser2-Pro3-Thr4-Ser5-Pro6-Ser7) of the C-terminal domain of the largest subunit of RNA polymerase II (Rpb1); residues named by heptad position and repeat letter (P6a ... S7c); also called pSer2-CTD; FAM-pSer2 CTD; source: synthetic peptide (JPT, Berlin, or Clonestar, Brno)
In turn, B1 had a Kd in test [1] of 44 µM.

B2: FAM-PSYSP(pT)SPSYSPTSPS (peptide)
peptide: {FAM}-PSYSP[pT]SPSYSPTSPS
notes: consensus heptad repeats of the C-terminal domain of the largest subunit of RNA polymerase II (Rpb1); residues named by heptad position and repeat letter (P6a ... S7c); also called pThr4-CTD; FAM-pThr4 CTD; source: synthetic peptide (JPT, Berlin, or Clonestar, Brno)
On to B2, for which the Kd turned out to be 38 µM in test [1], 107 µM in test [2] and 54 µM in test [3].

B3: FAM-PSYSP(pT)SPSYS (peptide)
peptide: {FAM}-PSYSP[pT]SPSYS
notes: consensus heptad repeats of the C-terminal domain of the largest subunit of RNA polymerase II (Rpb1); residues named by heptad position and repeat letter (P6a ... S2c); source: synthetic peptide (JPT, Berlin, or Clonestar, Brno)
Regarding B3, the affinity in test [4], expressed as Kd, was 18 µM.

What is called Kd is the concentration at which binding is half-saturated. Higher therefore signals lower affinity.
